Assay results published in paper PMC9351521 (Proceedings of the National Academy of Sciences of the …, 2022).
Positions count from the first letter of the chain named. Numbers in names are those of the source.

Legend:
Details in all cases: both partners purified
[1] = target: T1, His-tagged SARS-CoV-2 RBD T332-K529 with Pro-527 omitted (SARS-CoV-2, wild-type RBD (P0DTC2 …)); assay: crystal structure
T1 construct: also called isolated RBD

[2] = target: T2, SARS-CoV-2 spike receptor binding domain, His-tagged (T332-K529 with Pro-527 omitted) (SARS-CoV-2, wild-type RBD (P0DTC2 …)); assay: ITC; […]; iTC200, 25 °C, PBS; […]
T2 construct: also called RBD

[3] = target: T2, SARS-CoV-2 spike receptor binding …; assay: ITC; […]; iTC200, 25 °C, PBS; […]; remark: listed apart in the source
[4] = target: T3, SARS-CoV-2 spike glycoprotein ectodomain (amino acids 1 to 1,208, GSAS, PP, T4 fibritin trimerization domain) (SARS-CoV-2, P0DTC2 sequence with GSAS …, RRAR > GSAS at residues 682 to 685 | KV > PP at residues 986 to 987); assay: ITC; […]; iTC200, 25 °C, PBS; […]
T3 construct: also called trimeric spike protein

[5] = target: biotinylated RBD (wild type) (SARS-CoV-2, wild-type RBD (P0DTC2 …)); assay: SPR; […]; Biacore T200, PBS pH 7.4 with 0.005% P20, 25 °C
[6] = target: T1, His-tagged SARS-CoV-2 RBD T332-K529 …; assay: ITC
[7] = target: T4, SARS-CoV-2 spike glycoprotein ectodomain (amino acids 1 to 1,208, RRAR > GSAS, KV > PP, T4 fibritin … (SARS-CoV-2, P0DTC2 sequence with GSAS …, RRAR > GSAS at residues 682 to 685 | KV > PP at residues 986 to 987)); assay: ITC
T4 construct: also called Spike protein; trimeric spike protein

biotinylated RBD = biotinylated RBD (SARS-CoV-2, wild-type RBD (P0DTC2 …)); assay: SPR; Biacore T200, PBS pH 7.4 with 0.005% P20, 25 °C; […]; 1:1 binding model

B1: nanobody F2 (VHH)
VHH: QVQLVESGGGLVQAGGSLRLACIASGRTFHSYVMAWFRQAPGKEREFVAAISWSSTPTYYGESVKGRFTISRDNAKNTVYLQMNRLKPEDTAVYFCAADRGESYYYTRPTEYEFWGQGTQVTVSS
B1: binds [1].

B2: H11-A10 (VHH)
VHH: QVQLVESGGGLMQAGGSLRLSCAVSGRTFSTAAMGWFRQAPGKEREFVAAIRWSGGSAYYADSVKGRFTISRDKAKNTVYLQMNSLKYEDTAVYYCAGFSATRSLLSDYATWPYDYWGQGTQVTVSS
With B2 the “stoichiometry N” value [2] was 1.

B3: H11-H4 Q98R H100E (D4 hybrid) (VHH)
VHH: B2 VHH with G98R, F99T, S100E, A101Y, T102V, R103S, S104Y
B3 was tested, and the “stoichiometry N” value [3] was 1 and the “stoichiometry N” value [4] was 1.

B4: H11-H4 R52K (VHH)
VHH: B2 VHH with R52K, G98Q, F99T, S100H, A101Y, T102V, R103S, S104Y
B4: no binding (tested: 1 µM) [5].

B5: H11-H6 (VHH)
VHH: B2 VHH with F99S, S100K, A101I
B5 was tested, and the “stoichiometry N” value [3] was 1.

B6: H11-B5 (VHH)
VHH: B2 VHH with G98S, F99Y, S100Q
B6 was tested, and the “stoichiometry N” value [2] was 1.

B7: nanobody H11-H4 Q98R H100E (D4 hybrid) (VHH)
VHH: B2 VHH with G98R, F99T, S100E, A101Y, T102V, R103S, S104Y
notes: also called H4-D4 hybrid; hybrid nanobody
Work on B7 yielded a Kd [6] of 18 ± 1 nM, a dH [6] of -16.5 kcal/mol and a Kd [7] of 21 ± 3 nM. It also gave a dH [7] of -14.8 kcal/mol and a t1/2 (biotinylated RBD) of 29 s.

B8: nanobody H11-B5 (VHH)
VHH: B2 VHH with G98S, F99Y, S100Q
For B8, the Kd [6] was 53 ± 5.3 nM and the dH [6] was -16.3 kcal/mol.

B9: H11-H4 R52E (VHH)
VHH: B2 VHH with R52E, G98Q, F99T, S100H, A101Y, T102V, R103S, S104Y
B9: no binding (tested: 1 µM) [5].

B10: nanobody H11 V101Y R103S (VHH)
VHH: B2 VHH with G98Q, F99T, S100R, A101Y, R103S
notes: also called double mutant A101Y, R103S
In the case of B10, the Kd [6] is reported as 5220 nM and the dH [6] is reported as -11 kcal/mol.

B11: nanobody H11-H6 (VHH)
VHH: B2 VHH with F99S, S100K, A101I
B11 showed a Kd [6] of 57 ± 4.5 nM and a dH [6] of -19.1 kcal/mol.

B12: nanobody H11-H4 Y104S (VHH)
VHH: B2 VHH with G98Q, F99T, S100H, A101Y, T102V, R103S
B12 gave a Kd [6] of 409 ± 91 nM and a dH [6] of -11 kcal/mol.

B13: H11-H4 Y104S (VHH)
VHH: B2 VHH with G98Q, F99T, S100H, A101Y, T102V, R103S
With B13 the “stoichiometry N” value [2] was 1.

B14: H11-H4 R52A (VHH)
VHH: B2 VHH with R52A, G98Q, F99T, S100H, A101Y, T102V, R103S, S104Y
B14: no binding (tested: 1 µM) [5].

B15: nanobody H11 (VHH)
VHH: B2 VHH with G98Q, F99T, S100R, A101V
notes: also called parent H11; parent nanobody
B15: binds [1].

B16: H11 V101Y R103S (VHH)
VHH: B2 VHH with G98Q, F99T, S100R, A101Y, R103S
For B16, the “stoichiometry N” value [2] was 1.

B17: nanobody H11-A10 (VHH)
VHH: B2 VHH
B17 showed a Kd [6] of 60 ± 4.6 nM and a dH [6] of -19.8 kcal/mol.
